Data on ten molecules can be found in patent publication US20060160174A1 (published 2006).

For orientation: Kd means the concentration at which binding is half-saturated. Low values mean higher affinity, high ones lower affinity. For orientation: koff means the first-order rate constant of dissociation. A higher koff goes with a short-lived complex. A word on the kon: it is a measure of how fast the partners come together.

The chains are these.
B1: L49-sFv-bL triple mutant FP990 (K H39 Q, F H82B S, N H91 Y) (scFv)
scFv: MEVQLQESGPSLVKPSQTLSLTCSVTGDSITSGYWNWIRQFPGNKLEYMGYISDSGITYYNPSLKSRISITRDTSKNQYYLQLNSVTAEDTATYYCARRTLATYYAMDYWGQGTSVTVSSGSTSGSGKPGSGEGSTKGDFVMTQTPLSLPVSLGDQASISCRASQSLVHSNGNTYLHWYLQKPGQSPKLLIYRVSNRFSGVPDRFSGSGSGTDFTLKISRVEAEDLGVYFCSQSTHVPPTFGGGTKLEIKRTPVSEKQLAEVVANTITPLMKAQSVPGMAVAVIYQGKPHYYTFGKADIAANKPVTPQTLFELGSISKTFTGVLGGDAIARGEISLDDAVTRYWPQLTGKQWQGIRMLDLATYTAGGLPLQVPDEVTDNASLLRFYQNWQPQWKPGTTRLYANASIGLFGALAVKPSGMPYEQAMTTRVLKPLKLDHTWINVPKAEEAHYAWGYRDGKAVRVSPGMLDAQAYGVKTNVQDMANWVMANMAPENVADASLKQGIALAQSRYWRIGSMYQGLGWEMLNWPVEANTVVETSFGNVALAPLPVAEVNPPAPPVKASWVHKTGSTGGFGSYVAFIPEKQIGIVMLANTSYPNPARVEAAYHILEALQ
B2: reverse orientation triple mutant FP999 (K H39 Q, F H82B S, N H91 Y, bL-L49-sFv orientation) (scFv)
chain: TPVSEKQLAEVVANTITPLMKAQSVPGMAVAVIYQGKPHYYTFGKADIAANKPVTPQTLFELGSISKTFTGVLGGDAIARGEISLDDAVTRYWPQLTGKQWQGIRMLDLATYTAGGLPLQVPDEVTDNASLLRFYQNWQPQWKPGTTRLYANASIGLFGALAVKPSGMPYEQAMTTRVLKPLKLDHTWINVPKAEEAHYAWGYRDGKAVRVSPGMLDAQAYGVKTNVQDMANWVMANMAPENVADASLKQGIALAQSRYWRIGSMYQGLGWEMLNWPVEANTVVETSFGNVALAPLPVAEVNPPAPPVKASWVHKTGSTGGFGSYVAFIPEKQIGIVMLANTSYPNPARVEAAYHILEALQMHGTKLMEVQLQESGPSLVKPSQTLSLTCSVTGDSITSGYWNWIRQFPGNKLEYMGYISDSGITYYNPSLKSRISITRDTSKNQYYLQLNSVTAEDTATYYCARRTLATYYAMDYWGQGTSVTVSSGSTSGSGKPGSGEGSTKGDFVMTQTPLSLPVSLGDQASISCRASQSLVHSNGNTYLHWYLQKPGQSPKLLIYRVSNRFSGVPDRFSGSGSGTDFTLKISRVEAEDLGVYFCSQSTHVPPTFGGGTKLEIKR
notes: also called bL-L49-scFv
B3: L49-sFv-bL double mutant FP960 (F H82B S, N H91 Y) (scFv)
scFv: B1 scFv with Q40K
B4: L49-sFv-bL double mutant FP965 (K H39 Q, N H91 Y) (scFv)
scFv: B1 scFv with S85F
B5: parental L49-sFv-bL fusion protein FP95 (scFv)
scFv: B1 scFv with Q40K, S85F, Y95N
notes: also called L49-scFv-bL; parental molecule
B6: 940 (scFv)
chain: B1 scFv with Q40K, Y79A, S85F, Y95N
notes: also called FP940; L49-sFv-bL mutant FP940 (Y H78 A)
B7: L49-sFv-bL mutant FP950 (N H91 Y) (scFv)
scFv: B1 scFv with Q40K, S85F
B8: L49-sFv-bL mutant FP945 (F H82B S) (scFv)
scFv: B1 scFv with Q40K, Y95N
B9: 935 (scFv)
chain: B1 scFv with Q40K, Y48W, S85F, Y95N
notes: also called FP935; L49-sFv-bL mutant FP935 (Y H47 W)
B10: L49-sFv-bL mutant FP930 (K H39 Q) (scFv)
scFv: B1 scFv with S85F, Y95N

Positions count from the first letter of the chain named. Numbers in names are those of the source.

The first experiment addresses T1, p97 antigen on human melanoma H3677 cells (human, UniProt P08582 20-709).
T1 sequence: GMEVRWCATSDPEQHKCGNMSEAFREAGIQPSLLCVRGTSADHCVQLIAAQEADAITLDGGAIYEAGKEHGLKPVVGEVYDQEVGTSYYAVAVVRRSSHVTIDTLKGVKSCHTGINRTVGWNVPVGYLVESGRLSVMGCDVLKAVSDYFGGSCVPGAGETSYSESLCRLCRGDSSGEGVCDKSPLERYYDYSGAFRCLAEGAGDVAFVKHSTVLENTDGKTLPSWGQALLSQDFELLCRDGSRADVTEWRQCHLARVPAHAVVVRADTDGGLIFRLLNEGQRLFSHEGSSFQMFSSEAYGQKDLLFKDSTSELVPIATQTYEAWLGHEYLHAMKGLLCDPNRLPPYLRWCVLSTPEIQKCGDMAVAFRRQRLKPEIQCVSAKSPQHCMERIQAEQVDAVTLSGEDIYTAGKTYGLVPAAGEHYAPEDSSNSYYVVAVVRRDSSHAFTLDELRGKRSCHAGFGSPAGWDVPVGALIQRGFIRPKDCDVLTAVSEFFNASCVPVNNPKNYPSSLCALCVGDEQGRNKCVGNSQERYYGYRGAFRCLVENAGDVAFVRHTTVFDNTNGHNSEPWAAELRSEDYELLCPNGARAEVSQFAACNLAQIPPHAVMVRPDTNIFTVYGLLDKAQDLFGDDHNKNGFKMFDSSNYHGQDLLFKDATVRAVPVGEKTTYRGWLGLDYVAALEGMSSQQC
Briefly: cell-based or functional assay.
Consider B1, for which the “IC50 of prodrug C-Mel on H3677 melanoma cells pre-treated with 10 nM fusion protein, unbound material washed off; cell viability by alamarBlue” value was 5000 nM.
With B2, the “IC50 of prodrug C-Mel on H3677 melanoma cells pre-treated with 10 nM fusion protein, unbound material washed off; cell viability by alamarBlue” value amounted to 5000 nM.

In another experiment the target is T2, soluble p97 (amino acids 20-710 of human p97 precursor), 6x his tag (human, UniProt P08582 20-710).
T2 construct: range 20-710; also called p97 melanotransferrin; recombinant p97; not shown: 6x his tag from vector pSecTag2
T2 sequence: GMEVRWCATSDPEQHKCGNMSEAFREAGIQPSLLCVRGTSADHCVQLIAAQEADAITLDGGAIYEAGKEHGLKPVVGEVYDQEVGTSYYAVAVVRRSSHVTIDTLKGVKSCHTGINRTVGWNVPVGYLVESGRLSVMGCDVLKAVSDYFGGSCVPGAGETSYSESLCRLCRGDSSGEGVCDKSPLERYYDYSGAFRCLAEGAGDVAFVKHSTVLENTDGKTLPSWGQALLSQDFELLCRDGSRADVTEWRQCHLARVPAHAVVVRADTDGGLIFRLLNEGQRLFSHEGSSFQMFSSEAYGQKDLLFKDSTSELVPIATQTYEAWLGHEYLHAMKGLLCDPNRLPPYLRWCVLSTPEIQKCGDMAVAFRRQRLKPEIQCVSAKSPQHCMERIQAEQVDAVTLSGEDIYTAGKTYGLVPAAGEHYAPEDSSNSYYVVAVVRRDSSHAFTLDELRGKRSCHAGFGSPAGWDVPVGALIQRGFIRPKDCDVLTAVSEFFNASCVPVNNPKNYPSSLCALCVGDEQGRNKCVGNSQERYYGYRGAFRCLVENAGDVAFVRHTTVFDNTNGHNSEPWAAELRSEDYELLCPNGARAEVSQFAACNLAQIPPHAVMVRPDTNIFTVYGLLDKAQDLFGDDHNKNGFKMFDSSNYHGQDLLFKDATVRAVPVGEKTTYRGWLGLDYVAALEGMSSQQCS
Briefly: SEC binding assay with purified p97 (discussion of the example).
Turning to B3, the “percent of purified protein bound to antigen” value was determined as 100%.
As for B1, the “percent of purified protein bound to antigen” value was determined as 100%.
On to B4, for which the “percent of purified protein bound to antigen” value came out at 100%.

A further experiment addresses T2, soluble p97 (amino acids 20-710 of …). Briefly: SPR, Biacore 2000, 25 C; p97 immobilised on CM5 chip, scFv fusion injected; 1:1 model. (In general: In SPR one partner is held on a chip, and binding of the other changes the refractive index at the surface.)
For B5, the Kd was 2.31 nM, the off-rate (koff) stood at 0.0007 s⁻¹ and the kon amounted to 304000 M⁻¹ s⁻¹.
Regarding B3, the Kd came out at 1.75 nM, the dissociation rate constant (koff) turned out to be 0.000638 s⁻¹ and the kon is 364000 M⁻¹ s⁻¹.
The molecule B1 returned a Kd of 1.75 nM, a koff of 0.000782 s⁻¹ and an association rate constant (kon) of 448000 M⁻¹ s⁻¹.
For B4 the same measures were 1.91 nM, 0.000765 s⁻¹ and 400000 M⁻¹ s⁻¹.
B2 registered a Kd of 1.71 nM, an off-rate (koff) of 0.000575 s⁻¹ and an association rate constant (kon) of 337000 M⁻¹ s⁻¹.

Another experiment has the same target. Description: solid-phase binding assay on wells coated with soluble p97; crude refold normalised on beta-lactamase activity; nitrocefin read-out, OD 490 nm [a].
Regarding B6, the binding result is on record as “binds”.
Still for that read-out and setting: to B7 belongs “binds”; to B8, “binds”.
As for B9, the binding result is listed as “binds”.
With B10, the binding result is “binds”.
